Starred links: 1 amine or outer side, 2 acyl side, 3 side chain; linkers in the order of their positions; H or OH if unused. Non-standard residues stand in square brackets, D forms with d. Groups on a side chain read outwards from the residue. Primed or numbered codes have the meaning given here. No end group written: not given here. *: point of attachment. γGlu = O=C(O)[C@H](CCC(=O)[*:2])N[*:1]; Stearoyl = CCCCCCCCCCCCCCCCCC(=O)*; αMeF = C[C@](N)(Cc1ccccc1)C(=O)O; αMeK = C[C@](N)(CCCCN)C(=O)O; αMeS = C[C@](N)(CO)C(=O)O; PEG2′ = not defined here; Aib = CC(C)(N)C(=O)O
B1: SEQ ID NO 8 (peptide)
peptide: H[Aib]EGS[αMeF]SSDVSS[αMeF]LEGEAA[αMeK]E[αMeF]IA[αMeF]VV[αMeK]GG-NH2
modifications: N-terminus assumed
SMILES: CC[C@H](C)[C@H](NC(=O)[C@](C)(Cc1ccccc1)NC(=O)[C@H](CCC(=O)O)NC(=O)[C@](C)(CCCCN)NC(=O)[C@H](C)NC(=O)[C@H](C)NC(=O)[C@H](CCC(=O)O)NC(=O)CNC(=O)[C@H](CCC(=O)O)NC(=O)[C@H](CC(C)C)NC(=O)[C@](C)(Cc1ccccc1)NC(=O)[C@H](CO)NC(=O)[C@H](CO)NC(=O)[C@@H](NC(=O)[C@H](CC(=O)O)NC(=O)[C@H](CO)NC(=O)[C@H](CO)NC(=O)[C@](C)(Cc1ccccc1)NC(=O)[C@H](CO)NC(=O)CNC(=O)[C@H](CCC(=O)O)NC(=O)C(C)(C)NC(=O)[C@@H](N)Cc1c[nH]cn1)C(C)C)C(=O)N[C@@H](C)C(=O)N[C@@](C)(Cc1ccccc1)C(=O)N[C@H](C(=O)N[C@H](C(=O)N[C@@](C)(CCCCN)C(=O)NCC(=O)NCC(N)=O)C(C)C)C(C)C
B2: SEQ ID NO 7 (peptide)
peptide: H[Aib]EGS[αMeF]TSEVSS[αMeF]LEGEAA[αMeK]E[αMeF]IA[αMeF]VV[αMeK]GG-NH2
modifications: N-terminus assumed
SMILES: CC[C@H](C)[C@H](NC(=O)[C@](C)(Cc1ccccc1)NC(=O)[C@H](CCC(=O)O)NC(=O)[C@](C)(CCCCN)NC(=O)[C@H](C)NC(=O)[C@H](C)NC(=O)[C@H](CCC(=O)O)NC(=O)CNC(=O)[C@H](CCC(=O)O)NC(=O)[C@H](CC(C)C)NC(=O)[C@](C)(Cc1ccccc1)NC(=O)[C@H](CO)NC(=O)[C@H](CO)NC(=O)[C@@H](NC(=O)[C@H](CCC(=O)O)NC(=O)[C@H](CO)NC(=O)[C@@H](NC(=O)[C@](C)(Cc1ccccc1)NC(=O)[C@H](CO)NC(=O)CNC(=O)[C@H](CCC(=O)O)NC(=O)C(C)(C)NC(=O)[C@@H](N)Cc1c[nH]cn1)[C@@H](C)O)C(C)C)C(=O)N[C@@H](C)C(=O)N[C@@](C)(Cc1ccccc1)C(=O)N[C@H](C(=O)N[C@H](C(=O)N[C@@](C)(CCCCN)C(=O)NCC(=O)NCC(N)=O)C(C)C)C(C)C

What was measured:
Experiment in all cases: cell-based or functional assay
GLP-1 receptor = GLP-1 receptor (human, UniProt P43220 24-463)
glucagon receptor = glucagon receptor (human, UniProt P47871 26-477)
Sequence of glucagon receptor (P47871 26-477): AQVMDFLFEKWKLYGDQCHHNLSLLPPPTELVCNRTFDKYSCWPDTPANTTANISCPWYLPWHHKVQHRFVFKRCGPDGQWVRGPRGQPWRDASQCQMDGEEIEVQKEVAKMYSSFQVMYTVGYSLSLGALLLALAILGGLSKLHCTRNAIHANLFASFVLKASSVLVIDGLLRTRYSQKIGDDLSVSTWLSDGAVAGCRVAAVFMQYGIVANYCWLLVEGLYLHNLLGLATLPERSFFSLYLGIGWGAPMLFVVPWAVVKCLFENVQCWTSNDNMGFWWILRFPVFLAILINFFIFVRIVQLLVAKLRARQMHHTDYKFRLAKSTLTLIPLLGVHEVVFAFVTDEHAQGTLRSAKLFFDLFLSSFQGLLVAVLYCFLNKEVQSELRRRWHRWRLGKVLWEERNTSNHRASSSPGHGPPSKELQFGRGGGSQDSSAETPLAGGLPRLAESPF

[1] = target: T1, glucose-dependent insulinotropic peptide (gastric inhibitory polypeptide) receptor (human, UniProt P48546 22-466)
T1 sequence (looked up): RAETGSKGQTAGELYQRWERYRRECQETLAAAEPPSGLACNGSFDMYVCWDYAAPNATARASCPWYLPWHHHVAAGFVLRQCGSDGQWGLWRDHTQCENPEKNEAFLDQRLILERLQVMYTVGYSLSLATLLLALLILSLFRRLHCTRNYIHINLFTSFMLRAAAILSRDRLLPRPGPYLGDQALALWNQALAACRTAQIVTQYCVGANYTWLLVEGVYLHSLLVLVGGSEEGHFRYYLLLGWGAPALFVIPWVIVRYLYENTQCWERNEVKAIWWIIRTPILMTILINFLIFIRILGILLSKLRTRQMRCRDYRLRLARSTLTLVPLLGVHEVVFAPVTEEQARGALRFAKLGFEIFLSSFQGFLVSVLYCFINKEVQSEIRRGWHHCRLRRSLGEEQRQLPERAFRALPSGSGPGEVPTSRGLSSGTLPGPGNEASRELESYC

| Binder | Primary assay EC50 (cAMP), Mean pM GLP-1R (GLP-1 receptor) [pM] | Primary assay EC50 (cAMP), n1 (GLP-1 receptor) [nM] | Primary assay EC50 (cAMP), n2 (GLP-1 receptor) [nM] | Primary assay EC50 (cAMP), n1 (glucagon receptor) [nM] | Primary assay EC50 (cAMP), n2 (glucagon receptor) [nM] | Primary assay EC50 (cAMP), n1 [1] [nM] | Primary assay EC50 (cAMP), n2 [1] [nM] |
| --- | --- | --- | --- | --- | --- | --- | --- |
| H[Aib]EGSFTSDV[αMeS]S[αMeF]LEGEAAK([PEG2′-PEG2′-PEG2′-Stearoyl])E[αMeF]IA[αMeF]VV[αMeK]GG-NH2 [SEQ ID NO 51] | 2.1 | 0.0017 | 0.0024 | 26 | 26 | 26 | 26 |
| B1 | 88 | 0.071 | 0.11 | 7.8 | 12 | 23 | 23 |
| H[Aib]EGS[αMeF]TSDV[αMeS]S[αMeF]LEGEAAK([PEG2′-PEG2′-PEG2′-Stearoyl])EFIA[αMeF]VV[αMeK]GG-NH2 [SEQ ID NO 54] | 0.9 | 0.00079 | 0.00093 | 26 | 26 | 26 | 26 |
| H[Aib]EGS[αMeF]TSDV[αMeS]S[αMeF]LEGEAAK([PEG2′-PEG2′-γGlu-Stearoyl])E[αMeF]IAWVV[αMeK]GG-NH2 [SEQ ID NO 49] | 124 | 0.096 | 0.15 | 25 | 25 | 25 | 25 |
| H[Aib]EGS[αMeF]TSDV[αMeS]S[αMeF]LEGEAAK([PEG2′-PEG2′-PEG2′-Stearoyl])E[αMeF]IAWVV[αMeK]GG-NH2 [SEQ ID NO 55] | 1.8 | 0.0014 | 0.0023 | 25 | 25 | 25 | 25 |
| H[Aib]EGS[αMeF]TSDV[αMeS]S[αMeF]LEGEAAK([PEG2′-PEG2′-γGlu-Stearoyl])E[αMeF]IA[αMeF]VVKGG-NH2 [SEQ ID NO 50] | 216 | 0.17 | 0.26 | 26 | 26 | 26 | 26 |
| H[Aib]EGS[αMeF]TSDVSS[αMeF]LEGEAAK([PEG2′-PEG2′-PEG2′-Stearoyl])E[αMeF]IA[αMeF]VV[αMeK]GG-NH2 [SEQ ID NO 52] | 2 | 0.0015 | 0.0025 | 26 | 26 | 26 | 26 |
| H[Aib]EGS[αMeF]TSDV[αMeS]SYLEGEAAK([PEG2′-PEG2′-PEG2′-Stearoyl])E[αMeF]IA[αMeF]VV[αMeK]GG-NH2 [SEQ ID NO 53] | 0.9 | 0.00083 | 0.0009 | 26 | 26 | 26 | 26 |
| H[Aib]EGS[αMeF]TSDVSS[αMeF]LEGEAAK([PEG2′-PEG2′-γGlu-Stearoyl])E[αMeF]IA[αMeF]VV[αMeK]GG-NH2 [SEQ ID NO 46] | 1560 | 0.92 | 2.2 | 26 | 26 | 26 | 26 |
| H[Aib]EGS[αMeF]TSDV[αMeS]SYLEGEAAK([PEG2′-PEG2′-γGlu-Stearoyl])E[αMeF]IA[αMeF]VV[αMeK]GG-NH2 [SEQ ID NO 47] | 43.3 | 0.037 | 0.05 | 25 | 25 | 25 | 25 |
| B2 | 389 | 0.35 | 0.43 | 100 | 100 | 100 | 100 |
| H[Aib]EGS[αMeF]TSDV[αMeS]S[αMeF]LEGEAAK([PEG2′-PEG2′-γGlu-Stearoyl])EFIA[αMeF]VV[αMeK]GG-NH2 [SEQ ID NO 48] | 6.1 | 0.0039 | 0.0082 | 26 | 26 | 26 | 26 |

Reference: patent publication US20200079833A1 (AstraZeneca / MedImmune, published 2020)
